{
  "source": "the DeepSol protein solubility set",
  "data": [
    {"assay": "soluble on expression in E. coli; label from the status in PepcDB or PDB records", "values": [
      {"sequence": "RLIRSVLCSSSAGFGQGFCSPSLRRHLSARFPRGHGNALANFSSCARSRVHAYSSASSATSVGVPVAKMRFIDIGANLLDEMYTGQYNDKPYHPPDLSAVLERAWAAGLEKLMITAGSLKEARAALELAKTDERLYCTVGCHPTRCKEFEDHPGGPEAYLQELLEVLKEGQALGKVVAVGECGLVATDYERLHFCDADTQKKYFEAQFRLAKESGLPMFLHLRAAADDFLDITGRHLGDFPRGGVVHSFDGTAEEAARVLAVPQLAIGINGCSLKTDDNLAVVGGLPLERIMLETDCPWCEIRPTHAGRKHVSAEALAGVTGAKDRKKFMPGCQVKS", "soluble on expression in E. coli": "not soluble"},
      {"sequence": "MAHHHHHHMSENLDRYDAYRLFCISAAAVNGDEDELQDRLGIVEEYLTEYEGLCRAFHKAQRTTHAQEIRRLLADEAEERRFLKEDADSLPWKLFINMSFACAQELVVEHERKMRQGIVAAYTASFTELLFPYETLQRMRLTWEALDSLALKACIVGRYGVREGQLARTSIPGYTAGSTFPPSARAAAAADAVRSLLAEEHQERQEMIEARGQHVAAALLILASSEKFRSFASASVCGMGFLPQLRNNLASTARQALDNSATRIQSAYRGYRVRAVRARS", "soluble on expression in E. coli": "not soluble"},
      {"sequence": "MAHHHHHHMLKCVSRVFLGAKTVPLNPHVPFKLHTAGRDDLPPIPTTATYEPEKIKENLAMMIRIRRVEALADQSYKLKKIRGFCHLCIGQEAIPVGMENVLSRGDPVVTGYRDHGLFMTRGGTIEELFAELFGREGGCSKGKGGSMHMYRVKENFYGGNGIVGAQAPLGAGLAWRYALENRDKPSNVAVTFYGDGAANQGQVFEAMNIAALQRIPVIFCCENNHYGMGTREDRAAYQPQMYRRGDYIPGLRVDGMDVLAVQEGTRWAKEWCLAGKGPVVLEMDSYRYMGHSMSDPDSQYRTKNDIQEVRRTRDCIEKMKEFVVSEGIMTVEEIKQMEKDVKKEVDKELPPAEKQAITPLKELFTDIYCGEQYEHRTTQGTVYAKP", "soluble on expression in E. coli": "not soluble"},
      {"sequence": "MAHHHHHHMSDEAARQQRSAELADQVRTFFATYAGSAEERLDVVRGYEKCRGDFKKMVREYLLFDNGVEAEVQRLHRLVSTLIELGNLSPTPAWKSTSTPEALLRLEKAMHRERQEAENVLKDMAGSGTGAAGAADGDLSSLQVMIRQRQQSSYESMLNHLESKYVTKKSNARESSSAHVRPHRPLARTNVLPKSTGKPLITGKSGTCAEEASASGIRPGNVGRIPLSTAVIFCFLCYCGRYRSWLNACDLSPHLLTQPPKFPAWLRGQPITVL", "soluble on expression in E. coli": "soluble"},
      {"sequence": "MKKETKPRVVVIGGGTGLPVILKGLKKKDIHLTAIVTVADDGGSSGKIREQMDVLPPGDIRNVMLALSNVDPRVVDLFQYRFAVDGDLSGHVIGNLILTALSQLNDSYVDAINVLATVLKIRGKVIPATDQPLILNAEMEDGSIVHGESLIPLQGKHINRVYIEPENVKPYPTAVEAVKEADLIVIGPGSLYTSILPNLLLTELADEITASKAPKVYITNILTQIGETDFFSDADHIKVIHEHVGKSFIDKTLINTTTVPKELLFPEDVAQVEHNAKGMEELGVEAIYQDFLSTEDGLVRHAAEKVADALLAMLPNQTNEKELEHHHHHH", "soluble on expression in E. coli": "soluble"},
      {"sequence": "MDTSSFETDLSLFKYDDLEALPDEYRELTPTARTERIEAARAELGDDVVVLGHNYQRREIVEHADFVGDSYQLSKEAANADADYVIFGGVTFMAESADIITDDSQSVILPSMEASCPMAGMAEALQVDAAWADITAAAPDETIIPITYMNSYADLKAFCAEQGGLVCTSSNAHRAFEWAFERGDKVLFLPDKHLGENTAHRLGMADATVEWDPWAAEGKTAEEVADADIVLWDGYCQVHERFTPEHVAEVRADHEDANVVVHPECRREVVEAADVVGSTATITETVADADPGETWAIGTEIHLANHLQRWHPEVNVVPLCGDACMDCNAMRQIDPNYLAWVLEELVEGRERNVIEVDSEEAELAQVGLDRMLELLEHHHHHH", "soluble on expression in E. coli": "not soluble"},
      {"sequence": "TVLPKDIPGDSLKVTVGTANGKPGDTVTVPVTFADVAKMKNVGTCNFYLGYDASLLEVVSVDAGPIVKNAAVNFSSSASNGTISFLFLDNTITDELITADGVFANIKFKLKSVTAKTTTPVTFKDGGAFGDGTMSKIASVTKTNGSVTIDP", "soluble on expression in E. coli": "soluble"},
      {"sequence": "MSIVMQLQDVAESTRLGPLSGEVRAGEILHLVGPNGAGKSTLLARMAGMTSGKGSIQFAGQPLEAWSATKLALHRAYLSQQQTPPFATPVWHYLTLHQHDKTRTELLNDVAGALALDDKLGRSTNQLSGGEWQRVRLAAVVLQITPQANPAGQLLLLDEPMNSLDVAQQSALDKILSALSQQGLAIVMSSHDLNHTLRHAHRAWLLKGGKMLASGRREEVLTPPNLAQAYGMNFRRLDIEGHRMLISTI", "soluble on expression in E. coli": "soluble"},
      {"sequence": "MATYRKSRAFAPEGFFECEGRGLEWLGAAHAQGGPRVVQVYGWGKDYLDIERVGSASPTPQAARAFGAALARMHDAGAKYFGSAPDGYNGTCYFGPLQDPVKMDTGEWTDPISYFADGRLRPMVNLGVKRGELDKRDVELTERVIEALPDLMGRAAADKPARIHGDLWSGNVMWTADSGQSEAVLIDPAAHGGHREEDLAMLHLFGMSYLSEITEGYQSVHPLKAGWQERITLWQLYPIAGHCVFFGGGYVNEYRSMCRSLLKLEHHHHHH", "soluble on expression in E. coli": "not soluble"},
      {"sequence": "MGSDKIHHHHHHMNAVISILVENTTPSPSLIGEYGFSALVEVDERKILFDTGSSDALFKNAENLGVKLEEVEALVISHGHFDHTSAVIPFLQRFGPKKLYLHPGIFSQRYLQGKKGLGPNIGCPFEPEDLVKNGAEIIFIDSFSEIMPGVFISGEIPRRNSFENTGGNFKVATHHGLLEDRLLDDMALLVDHPEGLIIISGCAHSGMINTIEYIREKTGRSKILAFIGGTHLITASEDRLAQTIAVLKMMDIEKIAVGHCTGFYAAARLLNELGPRVIKADTGMSFSF", "soluble on expression in E. coli": "not soluble"},
      {"sequence": "QGTRVTLKVDKEYQQALSRGHSAGHLAYLALNKVLAASYWRKDADRKDPHGNYDFNSYAQEASFVTPDKCLDTYRLGKTLRKRGLNSAEMLSDLEKIEGQVNAQLKFWLERDAAIIMDCHGDNLTDSRYWKCDLGEGELAVIPCGGTHAEHLSDFGSIHVKLVEMDSQTIEMHTDVIACFSN", "soluble on expression in E. coli": "not soluble"},
      {"sequence": "KKTSGNQDEILVIRKGWLTINNIGIMKGGSKEYWFVLTAENLSWYKDDEEKEKKYMLSVDNLKLRDVEKGFMSSKHIFALFNTEQRNVYKDYRQLELACETQEEVDSWKASFLRAGVYPERV", "soluble on expression in E. coli": "soluble"},
      {"sequence": "MGSDKIHHHHHHMEETAETPAAVIPPPPPEDEPAELPATLGFVSHQPVMDRQQRVVAYDFFVRQGKRNIEAGKQQEFDRLLLATLHNMDIFRLLAYRRAFVHIAMTSLDDPQLRGMPAGSVIFVLEPLPGMVVAEHMLRQLDELQKLGLRFALEPAAYDQNMLSPALQADLFSRVDFMVLDFAGPSTRVLAPILDQLPKRYPGARWLARNVGTAEDMDVCLRAPGHNRFALFHGPFVTTAHALEGGKVDTNQTRVLQIMRLLRTNADPKEVEAQFKLDSVLLFKLLRFINSPIHGLSRKVQTIEETLLLLGRETLFKWLSMLLFTSRKEDGTALSLLEKSLIRARFMEKLGGYRGNKLEAEHLFLTGMFSLLDVLLNQPFPDVLDPLELPLTVREAVVERKGIFAPHLALAMACEQGDNVQIEALAKVLDFDLDLANQYYLDSVVWAQVVLRDSEVHNNVEAV", "soluble on expression in E. coli": "not soluble"},
      {"sequence": "MGSDKIHHHHHHMNPNFTWDDLQFFLAVARTGQLSTAARRLRTSHATVSRRIDRLEFALKVKLFERNPRGYVLTTMGQRFVETAERMERETEQLQLDISDGMTAQRGVVRLSTLEGFGNFFLADRLGEFAERYPNISLELVAIQQIMSLSRKEADIAVALAAPKAGAYHAEVLTPYTLHVYGARSYLAGQPPIRTRSDLGSHRFVGYIDDMIFTPGLDYLGEIQPGLRAHFQSSSILTQLKAVRQGLGLCVLPHFMAKDEPNLEIVLPDEIELKRTYWLICHRDLIAIPRVRAVRDFLVDAAVENRGCFLRETPFALTGPRRVLERQ", "soluble on expression in E. coli": "not soluble"},
      {"sequence": "MMRIAVKEFLKIRRELKTLSDIRKLPYPRGTLHCILQQKKVDSVKRKYHTFAERIPEIISYWEREKKFPKWLTLPPVMKIRLLMKGMGFSAKSINKALRNPEDVVEDEKLAEQIRKAVLSDYVYSPIAARLQRARGKLGERGLAYELEKAGIEFLTEKDLKGRFSKTPDFYFEEPVEFMGEELKWIESKALFGDPRSHDLYWKKQYSKYYEMFGNGLIVYWLGCVESIEASDGSEFKNGYRTSLLDMLLYLTDSKDESYAERLNARFIEVNEQNDVLAAEKVVDAYAEGRVLAFTDRKREVARILKNMGFDVTLGQNYLTTLTANTLCHSPTANKAISLLSSLLCLINHPNLLLSAENPASLKFLLKYLFRNLLEHHHHHH", "soluble on expression in E. coli": "not soluble"},
      {"sequence": "MKPESHCVYLELSAEREHKFYEVTVEGAELTIRYGRIGTEGQTQRKSFADSAGAQAEAEKKLVEKRKKGYGDAVRGQTEKKAVEQPRLKLPRKFEPYRERIEATLRPVLLLEVLEEEPGPLGSKVGGVPYRVQGEAWPTDTEGRPLTFLAQLNFADLPPLEGYPENGILQFFIGRDDLYGCDFMRPEEGNPASFEVRWSPEPQMDLSQLDVETPDFDDDGFSPLETLRGFGLRGQQVEQPMSWCDCHFEQAIGLDLCDNSEGPEGRALGEWRQEKYDELATYGHQVGGYPSFTQEDPRTADDPRILLFQLDSEAGKITWGDVGIANFFIDPDDLARWDFSRVAYNWDCTLEHHHHHH", "soluble on expression in E. coli": "soluble"},
      {"sequence": "MLTLIQGKKIVNHLRSRLAFEYNGQLIKILSKNIVAVGSLRREEKMLNDVDLLIIVPEKKLLKHVLPNIRIKGLSFSVKVCGERKCVLFIEWEKKTYQLDLFTALAEEKPYAIFHFTGPVSYLIRIRAALKKKNYKLNQYGLFKNQTLVPLKITTEKELIKELGFTYRIPKKRL", "soluble on expression in E. coli": "soluble"},
      {"sequence": "MASKEAHVSLARGEQSVKRIKEFDPGKDSFSVLLLGIDAREKNGETVDQARSDANVLVTFNRKEKTAKMLSIPRDAYVNIPGHGYDKFTHAHAYGGVDLTVKTVEEMLDIPVDYVVESNFTAFEDVVNELNGVKVTVKSDKVIQQIKKDTKGKVVLQKGTHTLDGEEALAYVRTRKADSDLLRGQRQMEVLSAIIDKSKSLSSIPAYDDIVDTMGQNLKMNLSLKDAIGLFPFITSLKSVESIQLTGYDYEPAGVYYFKLNQQKLQEVKKELQNDLGVLEHHHHHH", "soluble on expression in E. coli": "soluble"},
      {"sequence": "MGSDKIHHHHHHMANLLSTCTSESGNIQHISPQNAGWEYVGFDVWQLKAGESITLPSDERERCLVLVAGLASVKAADSFFYRIGQRMSPFERIPAYSVYLPHHTEAKVTAETDLELAVCSAPGFGELPVRLISPQEVGVEHRGKGRNQRLVHNILPDSQLADSLLVVEVYTNEGDTSSWPAHKHDTAVEGQETYLEETYYHRFNPPQGFCLQRVYTDDRSLDECMAVYNRDVVKVPKGYHPVATIAGYDNYYLNVMAGPLRKWRFTWEENHAWINSPDYPR", "soluble on expression in E. coli": "not soluble"},
      {"sequence": "MMEKPEGLKLIDENGRRIDGRKKYELRPIKMKVGVLKNANGSAYIEWGRNKIIAAVYGPRELHSKHLQRPDRAILRVRYNMAPFSVEERKKPGPDRRSIEISKVIKGALEPALILEMFPRTSIDVFIEVLQADAGTRVAGITAASLALADAGIPMRDLVAACAAGKIEGEIVLDLNKEEDNYGEADVPVAIMPLKNDITLLQMDGYLTKEEFIEAVRLAIKGAKAVYQKQREALKEKYLKIAQEVEESE", "soluble on expression in E. coli": "soluble"},
      {"sequence": "MVRKQKRARLIYNPTSGQEIMKKNVAEVLDILESFGYETSAFQTTPRADSAKNEAARASQAGFDLVIAAGGDGTINEVVSGIAPLKRRPKVAIIPTGTTNDFARALKIPRGNPVEATKLIGKNQTIHMDIGRAYNDKYFINIAAAGSLTELTYSVPSQLKTMFGYLAYLVKGAELLPRVRNVPVKVFYDHGVFEGEASMIFVALTNSVGGFETIAPDAKLDDGKFTLILVKTANLFELTDLIRLVLTGGRHINHKKIEYIKTSYLKIIPQGNPPKRMMINLDGEYGGDAPIELRNLKNHIEFFANTDEISDDAITLDTEELVLEAIAQKFAREAESLDEMDKTKEQD", "soluble on expression in E. coli": "soluble"}
    ]}
  ]
}
